Test results as given in paper PMC6220335, “Molecular structure of promoter-bound yeast TFIID” (Nature Communications, 2018).

T1: Taf12, subunit of Komagataella phaffii TFIID (Komagataella phaffii, UniProt F2QSK7 1-609)
T1 construct: Taf12, TFIID subunit of the yeast Komagataella phaffii (formerly Pichia pastoris); histone-fold domain modelled in the cryo-EM map; source: endogenous, K. phaffii nuclear extract; co-purified in TFIID by SBP-tagged Taf2 (streptavidin beads, sucrose gradient)
T1 sequence (looked up): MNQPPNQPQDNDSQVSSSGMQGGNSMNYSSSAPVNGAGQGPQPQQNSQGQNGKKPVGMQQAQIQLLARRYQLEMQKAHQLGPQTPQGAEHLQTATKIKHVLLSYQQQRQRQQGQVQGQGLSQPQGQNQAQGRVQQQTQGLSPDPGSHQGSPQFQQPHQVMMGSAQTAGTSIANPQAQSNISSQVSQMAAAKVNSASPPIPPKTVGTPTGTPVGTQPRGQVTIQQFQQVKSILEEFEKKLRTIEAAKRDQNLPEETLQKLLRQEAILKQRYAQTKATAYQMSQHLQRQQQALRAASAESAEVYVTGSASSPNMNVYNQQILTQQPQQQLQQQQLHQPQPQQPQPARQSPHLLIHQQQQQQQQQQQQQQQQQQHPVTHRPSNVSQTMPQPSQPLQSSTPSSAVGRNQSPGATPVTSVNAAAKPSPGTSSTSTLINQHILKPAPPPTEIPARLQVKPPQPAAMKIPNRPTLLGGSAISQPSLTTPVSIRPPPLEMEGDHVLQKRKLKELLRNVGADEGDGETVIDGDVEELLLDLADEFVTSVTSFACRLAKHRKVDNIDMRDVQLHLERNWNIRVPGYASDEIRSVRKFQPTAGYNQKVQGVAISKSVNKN

T2: Taf1 (TBP-associated factor 1), subunit of Komagataella phaffii TFIID (Komagataella phaffii, UniProt F2QMX2 1-1010)
T2 construct: Taf1, TFIID subunit of the yeast Komagataella phaffii (formerly Pichia pastoris); native subunit of the purified complex; also called KpTaf1; source: endogenous, K. phaffii nuclear extract; co-purified in TFIID by SBP-tagged Taf2 (streptavidin beads, sucrose gradient)
T2 sequence (looked up): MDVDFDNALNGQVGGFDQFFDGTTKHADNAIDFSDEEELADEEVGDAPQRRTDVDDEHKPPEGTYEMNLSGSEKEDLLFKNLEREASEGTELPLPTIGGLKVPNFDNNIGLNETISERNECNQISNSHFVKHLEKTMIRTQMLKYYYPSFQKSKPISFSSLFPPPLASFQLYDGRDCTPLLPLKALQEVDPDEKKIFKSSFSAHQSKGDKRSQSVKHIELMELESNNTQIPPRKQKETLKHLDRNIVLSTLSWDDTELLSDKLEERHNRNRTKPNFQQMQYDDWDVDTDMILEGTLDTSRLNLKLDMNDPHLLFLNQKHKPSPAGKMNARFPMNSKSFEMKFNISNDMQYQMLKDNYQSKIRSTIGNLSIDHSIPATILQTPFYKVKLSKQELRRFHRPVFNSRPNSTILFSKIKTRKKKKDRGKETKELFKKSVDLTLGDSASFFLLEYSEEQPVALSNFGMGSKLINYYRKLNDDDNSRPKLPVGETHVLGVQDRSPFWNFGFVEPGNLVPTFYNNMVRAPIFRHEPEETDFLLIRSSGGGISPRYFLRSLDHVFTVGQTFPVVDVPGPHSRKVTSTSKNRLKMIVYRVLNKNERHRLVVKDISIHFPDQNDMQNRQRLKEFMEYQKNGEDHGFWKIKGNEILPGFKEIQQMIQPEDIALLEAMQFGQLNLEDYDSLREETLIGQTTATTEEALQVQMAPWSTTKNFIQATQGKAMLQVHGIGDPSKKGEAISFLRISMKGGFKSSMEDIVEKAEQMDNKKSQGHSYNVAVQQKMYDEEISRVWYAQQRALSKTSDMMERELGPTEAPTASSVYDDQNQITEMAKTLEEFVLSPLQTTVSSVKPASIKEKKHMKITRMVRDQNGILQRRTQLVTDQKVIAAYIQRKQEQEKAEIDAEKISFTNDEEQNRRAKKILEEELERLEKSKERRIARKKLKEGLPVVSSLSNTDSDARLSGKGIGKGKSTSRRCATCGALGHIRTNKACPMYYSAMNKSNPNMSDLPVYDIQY

B1: Taf5, subunit of Komagataella phaffii TFIID (natural protein, UniProt F2QWD3 1-722, looked up)
chain: MKQEPGDSSDKSAPSGSITPQPKPPQQANVSNQQPQKPQQFSAADLNRIVLEYLNKKGYHKTESMLRMESSHIPAPPTNIPTPQTTNISRPTAPGRAPEYSDDPATIKRGYSILKSWCESSLDFYRPELEKFLYPVFVHCYLDLIARGYPSHAREFYDKFSKDHSVLHEYEISKLGGISLKEHLQENDVAKIFRSHKFKVLIGRTTFNLLLYFLNENDAVGGGVVLRLINQYIEPVITTEAIAVEREGELNLSEGIVELHTLNNTSIGGEQREISSVDAFNKKPVKLGKLQVDPEYSKELEAELKLKDEHEQAAQKKVSTTLLEEYRENFKVDPSDENNPSKDTLPLPLKSAQDLRNDIAMIQDSRAKIKLSAAQASLPSVCMYTFHNTNNDLTCLKFNDDSTMVASGFQDSFIKLWSIDGSPLRSLLKNDPYNQQNNDGVAVKGSRRLVGHSGAVYGVDFSPDNRYLISCSEDKTVRLWSLDTYTCLVSYKGHSSSVWDVKFSPMGHYFATASHDQTARLWSCDHIYPLRIFAGHLNDVDCVEFHPNSTYLFTGSSDKTARMWDIARGECVRVFMGHSGAINCLAVSPDGRWLASAGEDSVVCLWDISTGRRIKAMRGHGRSSIYSLAFSREGTVLVSTGADNSVRVWDVKKNTNSPSAQPEPINDVTAQGIQKKTEDLRRRKEIVATNDHMSVYFTKKTPVYTVHFTRRNLCLAGGVFGG
notes: Taf5, TFIID subunit of the yeast Komagataella phaffii (formerly Pichia pastoris); WD40 repeat and NTD (residues 99–243) modelled in the cryo-EM map; two copies in holo-TFIID; source: endogenous, K. phaffii nuclear extract; co-purified in TFIID by SBP-tagged Taf2 (streptavidin beads, sucrose gradient)

What was measured:
[1] = molecular target: the molecule itself; assay: cryo-EM structure; purified TFIID (0.4 µM) with two-fold excess of TFIIA and 2.5–3-fold excess of pGAP promoter DNA, cross-linked with 0.1% glutaraldehyde; focused refinement of the lobes (Taf2 lobe 4.5 Å, Twin lobe 4.8 Å); homology models docked
[2] = molecular target: T3, Taf2 with C-terminal streptavidin-binding peptide tag, subunit of Komagataella phaffii TFIID (Komagataella phaffii, UniProt F2QRH9 1-1571); assay: cross-linking; 50 µg purified TFIID, 3 mM BS3, 2 h at 25 °C; trypsin, SCX fractionation, Orbitrap Fusion MS; pLink and Nexus, 5% FDR; settings: both partners purified
T3 construct: Taf2, TFIID subunit of the yeast Komagataella phaffii (formerly Pichia pastoris); residues 36 to 1194 modelled in the cryo-EM map; bait of the purification; also called SBP-tagged Taf2; source: K. phaffii strain with SBP-tagged Taf2, nuclear extract; purified (streptavidin beads, biotin elution, sucrose gradient)

[3] = molecular target: T1, Taf12, subunit of Komagataella phaffii …; assay: as above; settings: both partners purified
[4] = molecular target: B1; assay: as above; settings: both partners purified
[5] = molecular target: T2, Taf1 (TBP-associated factor 1), subunit …; assay: as above; settings: both partners purified

binding result [2]	Binder	stoichiometry N [1]	other results
–	Taf6, subunit of Komagataella phaffii TFIID (natural protein, UniProt F2QMA7 1-485, looked up, Taf6, TFIID subunit of the yeast Komagataella phaffii (formerly Pichia pastoris); HEAT repeats (residues 213–486) and histone-fold domain modelled in the cryo-EM map; two copies in holo-TFIID; source: endogenous, K. phaffii nuclear extract; co-purified in TFIID by SBP-tagged Taf2 (streptavidin beads, sucrose gradient)) MSKNSQRSSIPTSHTLWSPSDTVKDAAESLGIFNLNEEAAKNLAMDIEYRIHEILDQASKFMRHGKRRTLHTSDIDRALKVLNLEPLYGYDVSRPLVFKEALVGAGQNLYYVDDDEVDFEKLINEPLPKVPRFSTFTAHWLAIEGVQPAIPQNPSPNDIKNILPINRGSMENMFSLINDEVKEDTNEEFTSTGPSVSSNISNQKQGLEVKPLVKHVLSRELQLYFDKIVEVLLNQEETKEAELLRNSALQSVRADPGLHQLVPYFIQFISETITKNLKNISLLSTMLELIYSLLMNESLFLEPYVHAIIPCILTLLLAKKIGNVDDELQKQQQLALRELSASLLERVIEDFGSSYSTLKPRITRTLLRAFVSVNNTTPGTQYGALLGLRGLGSEVIRIVVLGNVINWSSTFLEKLQQEDQVFLIDTLIETLRVLTKEGKLVKDMKTENGIDNERLKQRVGDLIADRIQACDDAQDIYWGIFFGEV	2	–
–	B1	2	–
binds	Taf8, subunit of Komagataella phaffii TFIID (natural protein, UniProt F2QT15 1-517, looked up, Taf8, TFIID subunit of the yeast Komagataella phaffii (formerly Pichia pastoris); putative helices placed in the cryo-EM map; also called KpTaf8; source: endogenous, K. phaffii nuclear extract; co-purified in TFIID by SBP-tagged Taf2 (streptavidin beads, sucrose gradient)) MADKSDDNQSLVSVSSASSGKENPNSVGQRSMNPTLSHEEQHDQEVQERYNTGKDLNITSQPECVPAMEVALKASVLLILSSLGVQASSLSIDHLTYITTKYIDRLVSELHRSTEIQRRRTIAKRDVQLVVDRGILDLEDVTLEYERLKLTRKRVKPSIEKLSKYASELKESASSVQVSENDKDAFFFFDIAEKISEFMPLRMKRKNYIPKWMPVLPPEHTYVATPQFTEVISDPKELREQLTAESRLGEKALQHLIGTKIVEDKKEDVGNENDNDIDKEIHHGEIDVESDHNLEKGPNGETNGVQSQPPKSMVSSKRFDIVAHAKHRLSVLEKRKRHQEQLLENRRKEIDGLVGQYLGYYATKKIEPPVSDIIVNIMNTEYYHVSREISKSEHRKQKIQESQQLKRRKLEDELQQELEHQTEDIDFEFNFDEDDVDMNKNLNENLNENENDDEQVLIEEDTSFDITNGDIEKTNQETPFTNGSSKQWDSNNAILDSTNSEPEPEPPIADLFNVDSS	–	–
–	Taf4, subunit of Komagataella phaffii TFIID (natural protein, UniProt F2QWX2 1-411, looked up, Taf4, TFIID subunit of the yeast Komagataella phaffii (formerly Pichia pastoris); histone-fold domain modelled in the cryo-EM map; source: endogenous, K. phaffii nuclear extract; co-purified in TFIID by SBP-tagged Taf2 (streptavidin beads, sucrose gradient)) MSSTPDGSTPVDSGKRTSDQIDVGEYKRVKVERGNRSETVDSGLIDMSNSVGASLDIPTPDQLNPTNTGVQTPSLHQPGESISAHSLSLPGETSVGGSTGISRENTPQVRPDVSVSQSSSQLHQRNESFPGLSVSKSTTSLNKDTMFDNRKRLLGNNGANPNGQKSSDPEKLSDALTAAGVDLKEEESLLSQSTVIQQSRRQLSTLSSFLHPVHLATFMRRVMENNGLRNYVDHDTELLSYMSSACEGFMAGILTDSVILANHRKRPIKSKLKHSTTPRSDVSKVLRDIATKQKEREEQRVQKRVTLDIEGQEDDGKSKQDNEEVLHRAANATAMMMTSKSKKKKYSWMNADSGAQGGKTNSVLARGDSGIRYRDAREEPGLVLRDLLGALEGRRMCVANTVVKGYARMND	–	binding result [3]: binds; binding result [4]: binds
binds	Taf7, subunit of Komagataella phaffii TFIID (natural protein, UniProt F2QXR8 1-460, looked up, Taf7, TFIID subunit of the yeast Komagataella phaffii (formerly Pichia pastoris); source: endogenous, K. phaffii nuclear extract; co-purified in TFIID by SBP-tagged Taf2 (streptavidin beads, sucrose gradient)) MIKLKLHTDKKQNTVERRPKIKVKPPINKPESTVIPRIRVKPTRIAGDGYDSEDPDREDDPTTEEAIVMRIVPNDYSLEYVKKCVEQGDFSEISLQWKDKRRAVLRLKDRLYGAKLVDLPTMVEIHKTIDRKNIFKTMDVSQILLVIKELKYESEYLDIQLTASETFDDGLTPPLRGVKKRFDKRMTSKVFQIIEEQVDELFRLDEEAEASKYELVDTEAGTIPSFDADASTPNTKEFTVRGHLDVEDNEDLELELEQAFQQQSDTPLNPQQRSKGGRKTNDSDAHVRFYEQEEEDDEDEETFELKRVCSAEAKVEEGEEEAEEETEETEDDEDDDDEEVVGGKEIISGQRAGIDERLTHTQIIKEEIEELQATIGLKQSDFNKASNPIMKNRISDVIGRLKAELETKLRQVEMEQKEQQNNSNVTSHNIYQQRELDEDEDEDDDEDGDEDDDDDMEDLF	–	binding result [5]: binds
